# ± gives the standard error. Fewer inactive variants are shown than the library holds.
# B1: glmS ribozyme (parent)
# chain: AUAAAAGCGCCAGAACUACAGAAAUGUAGUUGACGAGGAGGAGGUUUAUCGAAUUUUCGGCGGAUGCCUCCAAA
# Variants of: B1
# Assay: self-cleavage kobs at 2500 uM GlcN6P; higher = faster cleavage; RNA array
# Conditions: with glucosamine-6-phosphate
# Method in brief: (§1)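 kobs was derived by fitting per-tile medians to one- or two-exponential decays after normalising signals to baseline and to non-cleaving reference variants. Those signals came from barcoded ribozyme variants transcribed in situ by E. coli RNA polymerase on sequenced MiSeq chips, followed through a hybridised Cy3 probe at 37 °C and imaged over ~14 h. Glucosamine-6-phosphate (40 μM to 10 mM) in HEPES/KCl/Mg(OAc)2 buffer was flowed in. Weighted Michaelis–Menten fits across concentrations then gave kcat and KM.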
row,Variant,self-cleavage kobs at 2500 uM GlcN6P [s⁻¹]
1,AUAAAAGUUCCAGAACUACAGAAAUGUAGUUGACGAGGAGGAGGUUUAUCGAAUUAUCGGCGGAUGCCUGCAAA [C8U G9U U56A C70G],< 1e-05
2,AUAAAAGCGCCAGCACUACAGAAAUGUAGUUGACGAGGAGGAGGUUUAUCGGAUUUUCGGCGGAUGCCUCCAAA [A14C A52G],0.000215 ± 3.3e-05
3,AUAAAAGCGCCAGAACUACAGAAAUGUAGUUGACGUGCAGGAGGUUGAUCGAAUUUUCGGCGGAUGCCUCCAAA [A36U G38C U47G],< 1e-05
4,AUAAAAGCGCCAGAACUACAGAAAUGUAGCUGACUAGGAGGAGGUUUAUCAAUUUCUCGGCGGAUGCCUCCAAA [U30C G35U G51A A53U U56C],< 1e-05
5,AUAAAUGCGCCAGAAGUACAGAAAUGUAGUUGACGAGGACAAGGUUUAUCGAAUUUUCGGCGGAUGCCUACAAA [A6U C16G G40C G41A C70A],< 1e-05
6,AUAAAAGCGCCAGAACUACAGAAAUGUAGUUGACGGGGAGGAUGUUUAUCGAAUUUUCGGCGGAUGCCUGCAAA [A36G G43U C70G],< 1e-05
7,AUAAAAGCGCCAGAUCUACAGAAAUGUAGUUGACGAGGAGGAGGUUUAUGGAAUUUUCGGCGGAUGCCUACAAA [A15U C50G C70A],0.000427 ± 0.00013
8,AUAAAAGCGCCAGAACUACAGAAAUGUAGUUGACGAGGAUGAGGUUUGUCGAAUUUUCGGCGGAUGCUUCCAAA [G40U A48G C68U],< 1e-05
9,AUAAAAGCGCCAGAACUACAGAAAUGUAGUUGACGAGGAGGAGGUUUAUCGAGUUUACGGCGGAUGCAUCCAAA [A53G U57A C68A],4.93e-05 ± 2.2e-05
10,AUAAAAGCGCCAGUACUACAGAAAUGUAGUUGACGAGGAGGAGGUUUAUGGAAUUUUCGCCGGAUGCCUCCAAA [A14U C50G G60C],0.000405 ± 0.00014
11,AUAAAAGCGCCAGAACUACAGAAAUGUACCUUACGAGGAGGAGGUUUAUCGCAUUUUCGGCGGAUGCCUCCAAA [G29C U30C G32U A52C],< 1e-05
12,AUAAAAGCGCGGGAACUACAGAAAUGUAAUGGACGAGGAGGAUGUUUAACUAACUUUCGGUGGAUGCCUCCAAA [C11G A12G G29A U31G G43U U49A G51U U54C C61U],< 1e-05
13,AUAAAAGCGCCAGGACUACAGAAAUGUAGUUGAUAAGGAGGACGUUUAUCGAAUUUUCGGCGGAUGCCUCCAAA [A14G C34U G35A G43C],< 1e-05
14,AUAAAAGCGCCAGAAUUACAGAAAUGUAGUUGACGAGGAGGAAGUUUAACGAAUUUUCGGCGGAUGCCUCCAAA [C16U G43A U49A],< 1e-05
15,AUAAAAGCACCAGAACUACAGAAAUGUAGUUGACGAGGAGGAGUUUUAUCGAAUUUUCGGCGGAUGCGUGCAAA [G9A G44U C68G C70G],< 1e-05
16,AUAAAAGCGCCAUAACUACAGAAAUGUAGUUGACGAGGAGGAGGUUUAUCGAAAUUUCGGCGGAAGCCUCCAAA [G13U U54A U65A],5.74e-05 ± 1.5e-05
17,AUAAAAGCGCCAGAUCUACAGAAAUGUAGUUGACGAGGAGGAGGUUUAUCGUAUUUUCGGCGGAUGGCUCCAAA [A15U A52U C67G],0.000122 ± 3.6e-05
18,AUAAAAGCGCCAGAACUACAGAAAUGUAGUUGACGAGGAGGAGGGGUAUCGGAUUUUCGGCGGAUGCCUCCAAA [U45G U46G A52G],5.59e-05 ± 2.7e-05

row,Variant,self-cleavage kobs at 2500 uM GlcN6P [s⁻¹]
1,AUAAAAGCGCCAGAACUACAGAAAUGUACUUGACGAGGAGGAGGUUUCCCGAAUUUUCGGCGGAUGCCUCCAAA [G29C A48C U49C],< 1e-05
2,AUAAAAGCGCUAGAACUACAGAAAUGUAGUUGACGAGGAGGGGGUUUAUCGAAUUUUCGGCGGAUGCCUCUAAA [C11U A42G C71U],0.0013 ± 0.0004
3,AUAAAAGCGCCAGAUCUACAGAAAUGUAGUUGACGAGGAGGAGGUUUAUCGAAUGUUCGGCGGUUGCCUCUAAA [A15U U55G A64U C71U],< 1e-05
4,AUAAAAGCGCCAGAACUACAGAAAUGUAUUUGACGUGGAGGAGGUUUAUCGAAUUUUCGGCGGAUGCCUGCAAA [G29U A36U C70G],0.000444 ± 0.0001
5,AUAAAAGCGCCGGAACUACAGAAAUGUAGUUGACGAGGAGGAGGUUUAUCGAAUAUUCGGCGGAUGCCGCCAAA [A12G U55A U69G],0.000115 ± 3e-05
6,AUAAAAGCGCCAGAUCUACAGAAAUGUAGUUGACGAGGAGGAGGUUUAUCGAAUGUUCGGCGGAUUCCUCCAAA [A15U U55G G66U],7.43e-05 ± 1.6e-05
7,AUAAAAGCACCAGAGCUACAGAAAUGUAGUUGAGGAGGAGGAGGUUUAUCGAAUCUUCGGCGGAUGCCUCGAAA [G9A A15G C34G U55C C71G],< 1e-05
8,AUAAAAACGCCAGAACUACAGAAAUGUAGUUGACGAGGAGGAGGAUUAGCGAAUUUUCGGCGGAUGCCUCCAAA [G7A U45A U49G],< 1e-05
9,AUAAAAGCGCCAGAACUACAGAAAUGUAGUUGACGAGGUGGAGGUUUGUCGAAUUUUCGGCGGAUGCCUCUAAA [A39U A48G C71U],4.36e-05 ± 1.5e-05
10,AUAAAAGCGCCAGAACUACAGAAAUGUACUUGACGUGGAGGAGGUUUAUCGGAUUUUCGGCGGAUGCCUCCAAA [G29C A36U A52G],< 1e-05
11,AUAAAAGCGGCAGAACUACAGAAAUGUAGUUGAGGAGGAGGAGGUUUAUCUAAUUUUCGGCGGAUGCCUCCAAA [C10G C34G G51U],< 1e-05
12,AUAAAAGCGCCAGAACUACAGAAAUGUAGUGGACGAGGAGGAGGUUUAUCGAUUUUUCGGCGGAUGCCUACAAA [U31G A53U C70A],0.000207 ± 6.4e-05
13,AUAAAAGCGCCAGAACUACAGAAAUGUAGUUGACGAGGUGGAGGUUUAUCGAAUUUUCGGCGGCUGCCUGCAAA [A39U A64C C70G],< 1e-05
14,AUAAAAGCGCCAGAACUACAGAAAUGUAGUUGACGAGGAGGAGGUUUAUCGUGUUUUCGGCGGGUGCCUCCAAA [A52U A53G A64G],5.47e-05 ± 1.7e-05
15,AUAAAAGCGCCUGAACUACAGAAAUGUAGUUAACGAGGAGGAGGUUUAUCGAAUUUUCGACGGAUGCCUCCAAA [A12U G32A G60A],< 1e-05
16,AUAAAAGCGCCAGAACUACAGAAAUGUAGUCGACGUGGAGGAGGUUCAUCGAAUUUUCGGCGGAUGCCUCCAAA [U31C A36U U47C],< 1e-05
17,AUAAAAGCGCCUGAACUACAGAAAUGUAGUUGACGAGGAGUAGGUCUAUCGAAUUUUCGGCGGAUGCCUCCAAA [A12U G41U U46C],9.28e-05 ± 3.6e-05

# Variants of: B1
# Assay: self-cleavage kobs at 10000 uM GlcN6P; higher = faster cleavage; RNA array
# Conditions: with glucosamine-6-phosphate
# Method in brief: as §1
row,Variant,self-cleavage kobs at 10000 uM GlcN6P [s⁻¹]
1,AUAAAAGCGCCAGCACUACAGAAAUGUAGUUGACGAGGAGGAGGUUUAUCGGAUUUUCGGCGGAUGCCUCCAAA [A14C A52G],0.000282 ± 5.3e-05
2,AUAAAAGCGCCAGAACUACAGAAAUGUAGCUGACUAGGAGGAGGUUUAUCAAUUUCUCGGCGGAUGCCUCCAAA [U30C G35U G51A A53U U56C],< 1e-05

# Reference: the supplement of paper PMC7125110
